Source: patent publication US20140120095A1 (Boehringer Ingelheim, published 2014)
Like-named read-outs stand apart in the source and are kept apart here. Values belong to the binder of their own block, whether it stands above or below them.

Columns and labels:
[1] = molecular target: T1, recombinant mouse VEGF164 (mouse, UniProt Q00731-2 27-190, biotinylated as the labelled ligand of the mVEGF164/mVEGFR2 AlphaScreen); experiment: binding ELISA on coated recombinant mouse VEGF164 (Example 12.6), OD 450 nm
T1 construct: also called mVEGF164; rmVEGF164
T1 sequence (looked up): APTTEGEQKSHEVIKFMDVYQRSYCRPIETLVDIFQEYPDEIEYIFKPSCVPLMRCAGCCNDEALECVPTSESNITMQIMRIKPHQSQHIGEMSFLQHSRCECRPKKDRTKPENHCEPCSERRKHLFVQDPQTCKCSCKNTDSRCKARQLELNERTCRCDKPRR
Experimental: Cross-reactivity to mouse VEGF164 is determined using a binding ELISA. […] Wells are blocked with a casein solution (1% in PBS). […] A mouse VEGF164 reactive mAb is included as positive control.

[2] = molecular target: T2, VEGF (used to stimulate HUVEC cells) (UniProt P15692-4 27-191, limits assumed); experiment: cell-based or functional assay
Target sequence in this assay (P15692 other isoform, or with tags, fused parts or gaps limits assumed): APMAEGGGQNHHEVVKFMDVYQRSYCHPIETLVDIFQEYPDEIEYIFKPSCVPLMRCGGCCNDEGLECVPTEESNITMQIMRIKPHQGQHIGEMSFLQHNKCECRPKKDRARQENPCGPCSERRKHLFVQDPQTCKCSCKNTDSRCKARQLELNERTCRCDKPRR

[3] = molecular target: T3, recombinant human VEGF165 (human, UniProt P15692-4 27-191, biotinylated in the competition assays); experiment: AlphaScreen, hVEGF165/hVEGFR2-Fc competition
T3 construct: Bought protein; also called hVEGF165; rhVEGF165
Experimental: (§1) Finally, streptavidin donor beads (20 μg/ml) are added and after 1 hour of incubation in the dark, fluorescence is measured on the Envision microplate reader.
Target sequence in this assay (P15692 other isoform, or with tags, fused parts or gaps): as the sequence (P15692 other isoform, or with tags, fused parts or gaps limits assumed) above

[4] = molecular target: T3, recombinant human VEGF165; experiment: AlphaScreen, hVEGF165/hVEGFR1-Fc competition
Experimental: as §1
Target sequence in this assay (P15692 other isoform, or with tags, fused parts or gaps): as the sequence (P15692 other isoform, or with tags, fused parts or gaps limits assumed) above

[5] = molecular target: T3, recombinant human VEGF165; experiment: SPR Biacore, immobilised hVEGF165, two state reaction model
Experimental: Samples are injected for 2 min and allowed to dissociate up to 20 min at a flow rate of 45 μl/min. In between sample injections, the chip surface is regenerated with 100 mM HCl. HBS-EP+(Hepes buffer pH7.4+EDTA) is used as running buffer. Binding curves are fitted using a Two State Reaction model by Biacore T100 Evaluation Software v2.0.1.
^{(a)}KD = kd1/kₐ₁ * (kd2/(kd2 + kₐ₂)) ^{(b)}Curves are fitted using a Two State Reaction model by Biacore T100 Evaluation Software v2.0.1
Target sequence in this assay (P15692 other isoform, or with tags, fused parts or gaps): as the sequence (P15692 other isoform, or with tags, fused parts or gaps limits assumed) above

[6] = molecular target: T3, recombinant human VEGF165; experiment: AlphaScreen, hVEGF165/hVEGFR2-Fc competition; parameters: % inhibition: concentration or dose not given beside the values
Experimental: as §1

[7] = molecular target: T3, recombinant human VEGF165; experiment: ELISA, hVEGF165/hVEGFR2-Fc competition; parameters: % inhibition: concentration or dose not given beside the values
[8] = molecular target: T3, recombinant human VEGF165; experiment: binding ELISA, coated rhVEGF165
Target sequence in this assay (P15692 other isoform, or with tags, fused parts or gaps): as the sequence (P15692 other isoform, or with tags, fused parts or gaps limits assumed) above

[9] = molecular target: T3, recombinant human VEGF165; experiment: ELISA, hVEGF165/hVEGFR1-Fc competition; parameters: % inhibition: concentration or dose not given beside the values
Target sequence in this assay (P15692 other isoform, or with tags, fused parts or gaps): as the sequence (P15692 other isoform, or with tags, fused parts or gaps limits assumed) above

[10] = molecular target: T2, VEGF (used to stimulate HUVEC cells); experiment: cell-based or functional assay; remark: listed apart in the source
Target sequence in this assay (P15692 other isoform, or with tags, fused parts or gaps limits assumed): as above

[11] = molecular target: T4, recombinant human VEGF121 (human, UniProt P15692-9 27-147); experiment: binding ELISA, coated rhVEGF121
T4 construct: also called rhVEGF121
T4 sequence (looked up): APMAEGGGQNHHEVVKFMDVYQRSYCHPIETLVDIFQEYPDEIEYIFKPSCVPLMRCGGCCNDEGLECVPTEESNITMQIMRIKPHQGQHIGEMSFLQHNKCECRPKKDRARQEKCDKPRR
Experimental: Binding to recombinant human VEGF121 is assessed via a solid phase binding ELISA. […] Wells are blocked with a casein solution (1% in PBS).

[12] = molecular target: T3, recombinant human VEGF165; experiment: AlphaScreen, hVEGF165/hVEGFR1-Fc competition; parameters: % inhibition: concentration or dose not given beside the values
Experimental: as §1
Target sequence in this assay (P15692 other isoform, or with tags, fused parts or gaps): as the sequence (P15692 other isoform, or with tags, fused parts or gaps limits assumed) above

[13] = molecular target: T5, human DLL4, full length, overexpressed on cells (human, UniProt Q9NR61 27-685); experiment: FMAT, hNotch1-Fc on CHO-hDLL4, +25 uM HSA
T5 construct: CHO cells in FMAT, HEK293 cells in the reporter assay; also called hDLL4; CHO-hDLL4

[14] = molecular target: T5, human DLL4, full length, overexpressed …; experiment: FMAT, hNotch1-Fc on CHO-hDLL4, -HSA
[15] = molecular target: T3, recombinant human VEGF165; experiment: AlphaScreen, hVEGF165/hVEGFR1-Fc competition, -HSA
[16] = molecular target: T3, recombinant human VEGF165; experiment: AlphaScreen, hVEGF165/hVEGFR2-Fc competition, -HSA
[17] = molecular target: T3, recombinant human VEGF165; experiment: AlphaScreen, hVEGF165/hVEGFR2-Fc competition, +5 uM HSA
Experimental: These 2 competition assays are also performed after preincubation of the VHHs with 5 μM human serum albumin.

[18] = molecular target: T3, recombinant human VEGF165; experiment: SPR Biacore, VEGF165
[19] = molecular target: T3, recombinant human VEGF165; experiment: AlphaScreen, hVEGF165/hVEGFR2-Fc competition; remark: listed apart in the source
[20] = molecular target: T2, VEGF (used to stimulate HUVEC cells); experiment: cell-based or functional assay; remark: listed apart in the source

binding result [1]: binds
% inhibition, VEGF HUVEC Erk phosphorylation assay [2]: 94%
IC50, VEGF HUVEC Erk phosphorylation assay [2]: 230 pM
IC50 [3]: 12 pM
% inhibition [4]: 100%
IC50 [4]: 46 pM
Kd [5]: 470 pM
ka1 [5]: 300000 M⁻¹ s⁻¹
ka2 [5]: 0.026 s⁻¹
kd1 [5]: 0.013 s⁻¹
kd2 [5]: 0.00028 s⁻¹
% inhibition [6]: 100%
IC50 [6]: 50 pM
% inhibition [7]: 100%
IC50 [7]: 292 pM
EC50 [8]: 320 pM
% inhibition [9]: 92%
IC50 [9]: 326 pM
% inhibition, VEGF HUVEC proliferation assay [10]: 96%
IC50, VEGF HUVEC proliferation assay [10]: 380 pM
EC50 [11]: 325 pM
% inhibition [12]: 98%
IC50 [12]: 69 pM
B1: VEGFBII024 (VHH, not shown: small tags and cut ends)
chain: EVQLVESGGGLVQTGDSLRLSCEVSGRTFSSYSMGWFRQAQGKEREFVVAISKGGYKYDSVSLEGRFTISKDNAKNTVYLQINSLKPEDTAVYYCASSRAYGSSRLRLADTYEYWGQGTQVTVSSGGGGSGGGGSGGGGSGGGGSGGGGSGGGGSGGGGSGGGGSEVQLVESGGGLVQAGGSLRLSCTASGSAFKSYRMGWFRRTPGKEDEFVASISWTYGSTFYADSVKGRFTMSRDKAKNAGYLQMNSLKPEDTALYYCAAGAQSDRYNIRSYDYWGQGTQVTVSS
notes: Bivalent anti-VEGF VHH; also called VEGFBII23B04-40GS-86H09

binding result [1]: binds
% inhibition, VEGF HUVEC Erk phosphorylation assay [2]: 92%
IC50, VEGF HUVEC Erk phosphorylation assay [2]: 190 pM
Kd [5]: 160 pM
ka1 [5]: 450000 M⁻¹ s⁻¹
ka2 [5]: 0.029 s⁻¹
kd1 [5]: 0.017 s⁻¹
kd2 [5]: 0.00013 s⁻¹
% inhibition [6]: 100%
IC50 [6]: 16 pM
% inhibition [7]: 100%
IC50 [7]: 49 pM
EC50 [8]: 428 pM
% inhibition [9]: 67%
IC50 [9]: 73.5 pM
% inhibition, VEGF HUVEC proliferation assay [10]: 95%
IC50, VEGF HUVEC proliferation assay [10]: 220 pM
EC50 [11]: 920 pM
% inhibition [12]: 70%
IC50 [12]: 21 pM
B2: VEGFBII010 (VHH, not shown: small tags and cut ends)
chain: EVQLVESGGGLVQTGDSLRLSCEVSGRTFSSYSMGWFRQAQGKEREFVVAISKGGYKYDSVSLEGRFTISKDNAKNTVYLQINSLKPEDTAVYYCASSRAYGSSRLRLADTYEYWGQGTQVTVSSGGGGSGGGGSGGGGSGGGGSGGGGSGGGGSGGGGSEVQLVESGGGLVQTGDSLRLSCEVSGRTFSSYSMGWFRQAQGKEREFVVAISKGGYKYDSVSLEGRFTISKDNAKNTVYLQINSLKPEDTAVYYCASSRAYGSSRLRLADTYEYWGQGTQVTVSS
notes: Homodimeric bivalent anti-VEGF VHH; also called VEGFBII23B04-35GS-23B04

binding result [1]: binds
% inhibition, VEGF HUVEC Erk phosphorylation assay [2]: 99%
IC50, VEGF HUVEC Erk phosphorylation assay [2]: 230 pM
IC50 [3]: 51 pM
% inhibition [4]: 82%
IC50 [4]: 39 pM
Kd [5]: 1100 pM
ka1 [5]: 330000 M⁻¹ s⁻¹
ka2 [5]: 0.018 s⁻¹
kd1 [5]: 0.017 s⁻¹
kd2 [5]: 0.00037 s⁻¹
% inhibition [6]: 100%
IC50 [6]: 51 pM
% inhibition [7]: 100%
IC50 [7]: 577 pM
EC50 [8]: 668 pM
EC50 [11]: 475 pM
% inhibition [12]: 82%
IC50 [12]: 71 pM
B3: VEGFBII025 (VHH, not shown: small tags and cut ends)
chain: EVQLVESGGGLVQAGGSLRLSCAASGRTFSNYAMGWFRQAPGKERVLVADISSSGINTYVADAVKGRFTISRDNAKNTVYLQMNSLKPEDTAVYYCAASAWWYSQMARDNYRYWGQGTQVTVSSGGGGSGGGGSGGGGSGGGGSGGGGSGGGGSGGGGSGGGGSEVQLVESGGGLVQTGDSLRLSCEVSGRTFSSYSMGWFRQAQGKEREFVVAISKGGYKYDSVSLEGRFTISKDNAKNTVYLQINSLKPEDTAVYYCASSRAYGSSRLRLADTYEYWGQGTQVTVSS
notes: Bivalent anti-VEGF VHH; also called VEGFBII10E07-40GS-23B04

Continued, binder first:

B4: DLLBII101G08 (VHH, not shown: small tags and cut ends)
VHH: EVQLVESGGGLVQAGGSLRLSCAASGRTFSSYAMAWFRQAPGKEREFVAAIRWSGGTAYYADSVQGRFTISRDNAKNTVYLQMNSLKPEDTAVYYCANRAADTRLGPYEYDYWGQGTQVTVSS
notes: Anti-DLL4 VHH; also called 101G8
IC50 [13]: 30100 pM
IC50 [14]: 31000 pM

B5: VEGFDLLBII002 (bispecific antibody)
chain: EVQLVESGGGLVQTGDSLRLSCEVSGRTFSSYSMGWFRQAQGKEREFVVAISKGGYKYDSVSLEGRFTISKDNAKNTVYLQINSLKPEDTAVYYCASSRAYGSSRLRLADTYEYWGQGTQVTVSSGGGGSGGGGSGGGGCGGGGSGGGGSGGGGSGGGGSEVQLVESGGGLVQAGGSLRLSCAASGRTFSSYAMAWFRQAPGKEREFVAAIRWSGGTAYYADSVQGRFTISRDNAKNTVYLQMNSLKPEDTAVYYCANRAADTRLGPYEYDYWGQGTQVTVSS
modifications: PEGylated at the Cys at position 15 of the 35 Gly-Ser linker
notes: VEGFBII23B04 - 35GS(Cys15) - DLLBII101G08
IC50 [13]: 120000 pM
% inh [15]: 64%
IC50 [15]: 360 pM
% inh [16]: 100%
IC50 [16]: 200 pM
% inh [17]: 100%
IC50 [17]: 240 pM
IC50 [14]: 106000 pM

B6: VEGFBII037 (VHH)
VHH: DVQLVESGGGLVQPGGSLRLSCAASGRTFSSYSMGWFRQAPGKEREFVVAISKGGYKYDAVSLEGRFTISRDNAKNTVYLQMNSLRPEDTAVYYCASSRAYGSSRLRLADTYEYWGQGTLVTVSS
notes: also called VEGFBII0037
Kd [18]: 270 pM
% inhibition [19]: 100%
IC50 [19]: 300 pM
% inhibition, VEGF HUVEC proliferation assay [20]: 78%
IC50, VEGF HUVEC proliferation assay [20]: 1540 pM

B7: VEGFDLLBII001 (bispecific antibody)
chain: EVQLVESGGGLVQAGGSLRLSCAASGRTFSSYAMAWFRQAPGKEREFVAAIRWSGGTAYYADSVQGRFTISRDNAKNTVYLQMNSLKPEDTAVYYCANRAADTRLGPYEYDYWGQGTQVTVSSGGGGSGGGGSGGGGCGGGGSGGGGSGGGGSGGGGSEVQLVESGGGLVQTGDSLRLSCEVSGRTFSSYSMGWFRQAQGKEREFVVAISKGGYKYDSVSLEGRFTISKDNAKNTVYLQINSLKPEDTAVYYCASSRAYGSSRLRLADTYEYWGQGTQVTVSS
modifications: PEGylated at the Cys at position 15 of the 35 Gly-Ser linker
notes: DLLBII101G08 - 35GS(Cys15) - VEGFBII23B04
IC50 [13]: 122000 pM
% inh [15]: 69%
IC50 [15]: 1580 pM
% inh [16]: 100%
IC50 [16]: 640 pM
% inh [17]: 100%
IC50 [17]: 640 pM
IC50 [14]: 128000 pM
